Reference: PMC7247132 (BMC Proceedings, 2020)

Target: the molecule itself
Experiment: Tricine SDS-PAGE, non-reducing against reducing; purified C5-His deglycosylated with glycopeptidase F, 12% gel

B1: N-terminal His-tagged C5 (C5-His) single domain of immunoglobulin new antigen receptor (IgNAR) (domain or fragment)
chain: PKVYLLHPSTDEIDTENSATLMCLATNFHPAEIYVGWMANDTLLDSGYRTQVDSEKGSGSSFVTDRLRLTAAEWNSDTTYSCLVGHPSLNRDLIRSTNKSNGKPSSVNVSVVLSDTVKSCT
B1 was tested, and the “stoichiometry N” value was 2.
